Assay results as given in article PMC10597343.

Biological target: T1, AcrR (Escherichia coli) (UniProt P0ACS9)
T1 sequence: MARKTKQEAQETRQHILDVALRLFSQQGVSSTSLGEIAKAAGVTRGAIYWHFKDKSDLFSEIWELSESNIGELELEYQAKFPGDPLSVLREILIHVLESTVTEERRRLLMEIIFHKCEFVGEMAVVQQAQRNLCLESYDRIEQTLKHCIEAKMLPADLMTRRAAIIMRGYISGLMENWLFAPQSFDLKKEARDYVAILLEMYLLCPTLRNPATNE
Test: EMSA
Details: EMSA with LightShift Chemiluminescent EMSA Kit, AcrR 0, 0.4 and 1 uM, as in ref 35; buffer, salt, pH and temperature not stated

Sequence	binding
CTTGCCATGCGATTTCCTTTTATCTTTCGACACGTAAAACGAATACCGGGGTTATCGGTCTGAATTGCGCAAAGTTTACGTTTAATTGTTTTTTTTAATAGCGGGAATAAGGGGCAGAGAAAAGAGTATTTCGGCGACTAACAAAAAATGGCTGTTTTTGAAAAAAATTCTAAAGGTTGTTTTACGACAGACGATAACAGGGTTGACGGCGATTGAGCCGACGGGTGGAAACCCAATACGTAATCAACGA (double strand) [fliDSTp]	no binding
TGCAAGTAGTAAATATGACAAGTTGATGTCATAAATGTGTTTCAGCAACTCGGAGGTATGCATTATTCCCACCCAGAATAACCAACTTTATTTTTATGCGGTTTCACCGCACCCCGTGATGTCGCCGGGAAGCCCCGGTAAAAAATAATTAGCATTAGAATAGTTGCGAT (double strand) [flhDCpS2]	no binding
